Paper PMC12000511, “Molecular basis for the assembly of the Vps5-Vps17 SNX-BAR proteins with Retromer” (Nature Communications, 2025)
Where no end group is shown, it is not given here.

Experiments:
[1] = target: ctVps5 (full length, homodimer) (Chaetomium thermophilum); assay: mass photometry; Refeyn OneMP, low ionic strength: 50 mM Tris-HCl pH 7.5, 40 mM NaCl, 2 mM β-ME
[2] = target: ctVps5 (full length, homodimer) (Chaetomium thermophilum); assay: mass photometry; Refeyn OneMP, 50-100 nM protein, 50 mM Tris-HCl pH 7.5, 200 mM NaCl, 2 mM β-ME; ctRetromer and ctVps5 combined in a 1:1 ratio
hRetromer = target: T1, hRetromer (Homo sapiens, UniProt Q96QK1+Q9UBQ0); assay: GST pull-down with hRetromer; assay type: binding; details: 1 nmol GST-tagged protein, 2 nmol hRetromer, overnight 4 °C, SDS-PAGE/blot
T1 construct: GST (N); made in house; host or cells: E. coli BL21(DE3) (general statement for bacterial constructs)
Experimental: GST pull-down assay of scVps5 and hRetromer was performed similar to the one described above with some modifications. The purified hRetromer at 2 nmol was mixed with 1 nmol GST-tagged hFam21R19–R21, scVps5_70–128 LF native, scVps5_70–128 LF mutant or GST alone separately overnight at 4 °C before added to fresh glutathione Sepharose pre-equilibrated with buffer as mentioned above. In all cases, beads were washed five times with the equilibration buffer and bounds proteins were analysed by SDS-PAGE gels.

[3] = target: ctVps29 (Chaetomium thermophilum); assay: ITC; Microcal PEAQ ITC, 25 °C, 50 mM Tris-HCl pH 7.5, 200 mM NaCl, 2 mM β-ME; Vps5/Vps17/SNX1 construct or peptide (200-400 µM) titrated into 10-15 µM Retromer or Vps29; single-site model, N set to 1.0 if close to 1
[4] = target: ctRetromer (Chaetomium thermophilum Retromer trimer of ctVps35, ctVps26 and ctVps29) (Chaetomium thermophilum); assay: as above
[5] = target: ctRetromer (Chaetomium thermophilum Retromer trimer of ctVps35, ctVps26 and ctVps29) (Chaetomium thermophilum); assay: ITC; as a1, with 100 µM of the cyclic peptide RT-D3 in the cell: 200 µM ctVps5 or GST-ctVps5(51–100) titrated into 10 µM ctRetromer or ctVps29
[6] = target: ctRetromer (Chaetomium thermophilum Retromer trimer of ctVps35, ctVps26 and ctVps29) (Chaetomium thermophilum); assay: ITC; as a1, with 100 µM of the control cyclic peptide RT-D1 L7E in the cell: 200 µM ctVps5 titrated into 10 µM ctRetromer
[7] = test system: yeast vps5Δ cells (SEY6210); assay: Vacuole fragmentation (FM4−64) in vps5Δ yeast; assay type: cell-based, Saccharomyces cerevisiae; details: vps5Δ cells complemented with Vps5 variant on plasmid
Experimental: (§1) The Saccharomyces cerevisiae strains are derived from SEY6210 (Supplementary Table 3). Vps5 and Pep4 deletions, Vps5 N-terminal point mutations and endogenous tagging of Vps10 was conducted based on the CRISPR-Cas9 system. The vector co-expressing single guide RNA and Cas9 enzyme was co-transformed into yeast cells with double-stranded oligonucleotides as the templates for homologous recombination (Supplementary Table 4). For Vps5 deletion, the template contained 40-bp homology upstream and downstream of its coding sequence. Vps10^mNeonGreen was created by a template comprising its C-terminal region with mutated PAM sequence and fused mNeonGreen tag followed by 40-bp homology region after the stop codon. Vam10 was cloned into pRS305 vector using Not1/Sma1 restriction sites to generate an integrative plasmid that was linearized, transformed and integrated ectopically into the auxotrophic selectable marker LEU2 gene locus.
The VPS5 gene with its native promoter, C-terminally fused HA-tag and ADH1 terminator was cloned into pRS314 centromeric plasmid. A point mutation was introduced in the start codon of VAM10 (M-to-I) by site-directed mutagenesis, because VAM10 overlaps with VPS5[71]. […] For the N-terminal deletion mutant of Vps5 (Δ1-280), residues 838–2025 of VPS5 were amplified and subcloned into the pRS314-VPS5-HA plasmid described above using Nco1/Sma1 restriction sites. The plasmid bearing the PL motif mutation (L196R) was generated using site-directed mutagenesis in the pRS314-VPS5-HA plasmid. To abolish all three putative binding sites to Retromer, a synthetic gene fragment of VPS5 (ordered from GenScript) containing the following mutations—start codon of VAM10 sequence(M-to-I), L196R, L121G, F122G and F161E—was subcloned into the pRS314-VPS5-HA plasmid using Nco1/Stu1 restriction sites.
Vacuoles were stained with FM4−64. Cells were grown in SD^-URA medium to an OD600 between 0.6 and 1.0. The culture was diluted to an OD600 of 0.4, and FM4−64 was added to a final concentration of 10 µM from a 10 mM stock in DMSO. […]

Vps10 = assay: Vps10-mNeonGreen localisation/recycling in vps5Δ yeast (Pearson colocalization with vacuole); assay type: cell-based, Saccharomyces cerevisiae; details: vps5Δ cells complemented with Vps5 variant on plasmid; confocal microscopy
Description: Fig. 7 The interaction of Retromer with the Vps5 N-terminal domain is required for Vps10 recycling. A AlphaFold2 predicted structure of the scVps35–scVps29–scVps5 complex highlighting residues targeted for mutagenesis. B Yeast cells (SEY6210) carrying a Vps5 deletion, and expressing a copy of Vam10 (the VAM10 gene is embedded in VPS5 and deleted with it) and Vps10-mNeonGreen were complemented with centromeric plasmids expressing variants of Vps5. These cells were logarithmically grown in SD-URA medium, stained with FM4−64 and analysed by confocal microscopy. Single slices of the images are shown. Scale bar: 1 μm. Arrowheads indicate regions of Vps10 vacuolar localisation, and open arrowheads indicate Vps10 localised to pre-vacuolar comparmtnets. C Graph representation showing the Pearson Colocalizastion Coefficient between the vacuolar and Vps10 signals of Vps5 deleted yeast cells shown in B quantified using JACoP (Just Another Co-localization Plugin) implemented in ImageJ. Error bars are the standard deviations calculated from ≥ 70 measurements from 2 experiments.
as §1, with “locus. […]” for “locus.”

[8] = test system: scRetromer and scSNX-BAR on supported membrane tubes; assay: Supported membrane tube (SMT) assay; assay type: biochemical, Saccharomyces cerevisiae
Experimental: Supported membrane tubes were generated as described[46]. Briefly, glass coverslips were first washed with 3 M NaOH for 5 min and rinsed with water before a 60 min treatment with piranha solution (95% H2SO4/30% H2O2 3:2 v/v). Coverslips were rinsed with water and dried on a heat block at 90 °C. Coverslips were then silanized with 3-glycidyloxypropyltrimethoxysilane (Catalogue no. 440167, Sigma) for 5 h under vacuum, rinsed with acetone and dried. Polyethylene glycol coating was done by placing the coverslips in a beaker containing PEG400 (Sigma) at 90 °C for 60 h. Coverslips were washed with distilled water and stored for up to 2 months at room temperature in a closed container.
To generate supported membrane tubes, lipids were mixed from 10 mg/mL stocks in a glass vial and diluted to a final concentration of 1 mg/mL in chloroform. The same lipid mix was used throughout this study (5% PI(3)P, 15% DOPS, 0.1% fluorescent lipid tracer (Cy5.5 PE or Texas red DHPE), 79.5% egg-PC). Lipids were then spotted (typically 1 µL, corresponding to about 1 nmol) on the coverslips and dried for 30 min under vacuum. The coverslip was mounted on an IBIDI 6-channel µ-slide (µ-Slide VI 0.4. IBIDI, catalog no: 80606). Lipids were hydrated for 15 min with buffer (PBS) and SMTs were generated by injecting PBS into the chamber using an Aladdin Single-Syringe Pump (World Precision Instruments, model n°. AL-1000) at a flow rate of 1,5 mL/min for 5 min. SMTs were left to stabilize without flow for 5 min before the start of the experiment. Protein stocks (typically 1–2 µM) were first diluted in PBS and then injected in the chamber at a flow rate of 80 µL per minute. Cyclic peptides were added to the proteins from a 30 mM stock in DMSO to a final concentration of 300 µM. the protein/peptide mix was incubated for 1 min at room temp (23 °C) before being added to the SMTubes.

ctRetromer (Chaetomium thermophilum Retromer trimer of ctVps35, ctVps26 and ctVps29) (complex)
stoichiometry N (ctRetromer per ctVps5 dimer) [1]: 2
stoichiometry N (ctRetromer per ctVps5 dimer) [2]: 1

GST-tagged scVps5_70–128: GST-tagged S. cerevisiae Vps5 residues 70–128 containing the LF motif (GLSVAGNPQLEEHDNSKADDLINSLAPEQDPIADLKNSTTQFIATRESGGALFTGNANS; not fully specified (N-terminus); also: GST fusion, end not given here)
binding to hRetromer in GST pull-down (hRetromer): only binds weakly to VPS35
binding to hRetromer in GST pull-down (hRetromer; listed as GST- scVps570-128): binds weakly to hRetromer

GST-ctVps5_(51–100) (domain or fragment)
Kd [3]: 1600 nM
dH [3]: -2.16 kcal/mol
Kd [4]: 660 nM
dH [4]: -4.1 kcal/mol

ctVps5 (full length, homodimer) (natural protein)
Kd [4]: 720 nM
dH [4]: -8.5 kcal/mol
Kd with 100 µM RT-D3 (competitor) present [5]: 9410 nM
dH [5]: -10.5 kcal/mol
stoichiometry N [2]: 2
Kd with 100 µM RT-D1 L7E (control peptide) present [6]: 750 nM
dH [6]: -7.53 kcal/mol

B1: quadruple mutant Vps5 (L121G/F122G/F161E/L196R): scVps5 mutant altering PL, [K/R]Φ and LFa sites (protein, UniProt Q92331 1-675, looked up, variant L121G F122G F161E L196R)
Vacuolar protein …: MDYEDNLEAPVWDELNHEGDKTQSLVSNSIESIGQISTNEERKDNELLETTASFADKIDLDSAPEWKDPGLSVAGNPQLEEHDNSKADDLINSLAPEQDPIADLKNSTTQFIATRESGGAGGTGNANSPLVFDDTIYDANTSPNTSKSISGRRSGKPRILEDSARAQRNSKRNHSLKAKRTTASDDTIKTPFTDPRKKAEKENEFVEEPLDDRNERRENNEGKFTASVEKNILEQVDRPLYNLPQTGANISSPAEVEENSEKFGKTKIGSKVPPTEKAVAFKVEVKDPVKVGELTSIHVEYTVISESSLLELKYAQVSRRYRDFRWLYRQLQNNHWGKVIPPPPEKQSVGSFKENFIENRRFQMESMLKKICQDPVLQKDKDFLLFLTSDDFSSESKKRAFLTGSGAINDSNDLSEVRISEIQLLGAEDAAEVLKNGGIDAESHKGFMSISFSSLPKYNEADEFFIEKKQKIDELEDNLKKLSKSLEMVDTSRNTLAASTEEFSSMVETLASLNVSEPNSELLNNFADVHKSIKSSLERSSLQETLTMGVMLDDYIRSLASVKAIFNQRSKLGYFLVVIENDMNKKHSQLGKLGQNIHSEKFREMRKEFQTLERRYNLTKKQWQAVGDKIKDEFQGFSTDKIREFRNGMEISLEAAIESQKECIELWETFYQTNL
vacuole fragmentation [7]: strong vacuole fragmentation
Vps10 recycling/localisation (Vps10): severe Vps10 recycling sorting defect
Vps5–Vps17 heterodimer formation of mutant ([8]; quadruple mutant Vps5 with scVps17): do not impair heterodimer formation
coat formation / recruitment on SMTs ([8]; scSNX-BAR and scRetromer on SMTs containing 5% PtdIns(3)P): showed a defect of coat formation

B2: wildtype Vps5: S. cerevisiae wildtype Vps5 re-introduced into knockout cells (protein, UniProt Q92331 1-675, looked up)
Vacuolar protein …: MDYEDNLEAPVWDELNHEGDKTQSLVSNSIESIGQISTNEERKDNELLETTASFADKIDLDSAPEWKDPGLSVAGNPQLEEHDNSKADDLINSLAPEQDPIADLKNSTTQFIATRESGGALFTGNANSPLVFDDTIYDANTSPNTSKSISGRRSGKPRILFDSARAQRNSKRNHSLKAKRTTASDDTIKTPFTDPLKKAEKENEFVEEPLDDRNERRENNEGKFTASVEKNILEQVDRPLYNLPQTGANISSPAEVEENSEKFGKTKIGSKVPPTEKAVAFKVEVKDPVKVGELTSIHVEYTVISESSLLELKYAQVSRRYRDFRWLYRQLQNNHWGKVIPPPPEKQSVGSFKENFIENRRFQMESMLKKICQDPVLQKDKDFLLFLTSDDFSSESKKRAFLTGSGAINDSNDLSEVRISEIQLLGAEDAAEVLKNGGIDAESHKGFMSISFSSLPKYNEADEFFIEKKQKIDELEDNLKKLSKSLEMVDTSRNTLAASTEEFSSMVETLASLNVSEPNSELLNNFADVHKSIKSSLERSSLQETLTMGVMLDDYIRSLASVKAIFNQRSKLGYFLVVIENDMNKKHSQLGKLGQNIHSEKFREMRKEFQTLERRYNLTKKQWQAVGDKIKDEFQGFSTDKIREFRNGMEISLEAAIESQKECIELWETFYQTNL
vacuole fragmentation [7]: clear recovery of large vacuoles
Vps10 recycling/localisation (Vps10): localization of Vps10-mNeonGreen on punctate structures

B3: Vps5 (L196R): single amino acid substitution in the core PL motif of scVps5 (protein, UniProt Q92331 1-675, looked up, variant L196R)
Vacuolar protein …: MDYEDNLEAPVWDELNHEGDKTQSLVSNSIESIGQISTNEERKDNELLETTASFADKIDLDSAPEWKDPGLSVAGNPQLEEHDNSKADDLINSLAPEQDPIADLKNSTTQFIATRESGGALFTGNANSPLVFDDTIYDANTSPNTSKSISGRRSGKPRILFDSARAQRNSKRNHSLKAKRTTASDDTIKTPFTDPRKKAEKENEFVEEPLDDRNERRENNEGKFTASVEKNILEQVDRPLYNLPQTGANISSPAEVEENSEKFGKTKIGSKVPPTEKAVAFKVEVKDPVKVGELTSIHVEYTVISESSLLELKYAQVSRRYRDFRWLYRQLQNNHWGKVIPPPPEKQSVGSFKENFIENRRFQMESMLKKICQDPVLQKDKDFLLFLTSDDFSSESKKRAFLTGSGAINDSNDLSEVRISEIQLLGAEDAAEVLKNGGIDAESHKGFMSISFSSLPKYNEADEFFIEKKQKIDELEDNLKKLSKSLEMVDTSRNTLAASTEEFSSMVETLASLNVSEPNSELLNNFADVHKSIKSSLERSSLQETLTMGVMLDDYIRSLASVKAIFNQRSKLGYFLVVIENDMNKKHSQLGKLGQNIHSEKFREMRKEFQTLERRYNLTKKQWQAVGDKIKDEFQGFSTDKIREFRNGMEISLEAAIESQKECIELWETFYQTNL
vacuole fragmentation [7]: partial rescue of vacuole fragmentation
Vps10 recycling/localisation (Vps10): partial defect in Vps10 recycling
